Experimental data taken from patent US20170121398A1 (PROTHENA BIOSCIENCES, published 2017).

Target: pH4.0-treated TTR (human, UniProt P02766 21-147)
Assay: ELISA, pH4-treated TTR-His captured on an anti-His coat, anti-mouse HRP detection, OD450

- EC50 (read off the curve): ~0.2 µg/mL
B1: mouse antibody 6C1 (antibody, IgG1, V domains shown)
VH: EVQLVESGGGLVQPGGSLKLSCAASGFTFSNYYMSWVRQTPEKRLEWVAYISIDGNNIYHPDSVKGRFTISRDNAKNTLYLQMSSLKSEDTAMYYCARDSDYGYFDVWGTGTTVTVSS
VL: DVLMTQTPLSLPVSLGDQASISCRSSQSIVHSNGNTYLEWYLQKRGQSPKLLIYKVSKRFSGVPDRFSGSGSGTDFILKISRVEAEDLGVYYCFQGSHVPLTFGGGTKLELK
notes: also called m6C1; mis-TTR mAb 6C1
